Data taken from patent US20100040541A1 (published 2010).
Numbering of substitutions follows the chain as printed. Names may count otherwise. One block for each molecule: values may come before it.

Columns and labels:
[1] = target: T1, CD20 (human B lymphocyte-restricted differentiation antigen, Bp35) on human Burkitt lymphoma cells (Raji, Daudi, Ramos) (human) (UniProt P11836); experiment: cell-based or functional assay
T1 sequence (looked up): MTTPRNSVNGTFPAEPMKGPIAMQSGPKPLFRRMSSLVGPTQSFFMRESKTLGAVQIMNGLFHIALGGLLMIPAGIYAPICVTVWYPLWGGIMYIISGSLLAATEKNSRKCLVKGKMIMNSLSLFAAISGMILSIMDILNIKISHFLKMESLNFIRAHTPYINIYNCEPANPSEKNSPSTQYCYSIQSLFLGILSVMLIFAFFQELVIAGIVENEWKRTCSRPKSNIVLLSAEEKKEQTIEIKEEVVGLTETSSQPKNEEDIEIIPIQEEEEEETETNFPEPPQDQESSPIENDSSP

[2] = target: T1, CD20 (human B lymphocyte-restricted differentiation antigen, Bp35) on human Burkitt lymphoma cells (Raji, Daudi, Ramos) (human); experiment: flow cytometry dissociation of PE-labeled MAb from Raji cells at 37 C without competing veltuzumab-Fab'-NEM
[3] = target: anti-idiotype antibodies; experiment: binding of radioiodinated MAb to anti-idiotype antibodies
[4] = target: T2, CD20 (human B lymphocyte-restricted differentiation antigen, Bp35) on human Burkitt lymphoma cells (Raji, … (human, UniProt P11836 1-297)); experiment: flow cytometry dissociation from lymphoma cells, with or without a competitive binder
T2 construct: whole, on cells; also called cell-surface CD20
T2 sequence (looked up): T1 sequence (looked up)
Experimental: (§1) Cells (Daudi, Raji, or Ramos) in 0.5 mL of CM (phenol red-free RPMI 1640 media supplemented with 10% FBS) at 1×10⁶ cells/mL were incubated with 5 μg of each PE-labeled MAb at room temperature for 30 min, pelleted at 400×g, washed twice with CM, resuspended in 1.5 mL of CM, and split into two 0.75-mL aliquots. […] Subsequent measurements were taken at 30-min intervals. The percent maximal binding, which is the quotient of the MFI at T=X divided by that at T=0, was plotted against time, and the results analyzed by Prism software (GraphPad Software Inc., San Diego, Calif.) to yield the half-life or off-rates.

[5] = target: T2, CD20 (human B lymphocyte-restricted …); experiment: saturation binding of 125I-labeled MAb to Raji cells, nonlinear regression / Scatchard, replicate assays
Experimental: Raji cells (5×10⁵) were incubated with radioiodinated MAbs in an assay volume of 225 μl, using tissue culture media as diluent, for 1 h at 37° C. or room temperature. Cells then were washed twice with PBS containing 1% horse serum, and cell pellets were counted in a gamma counter. The MAbs were titrated at a 2:3 serial dilution starting with approximately 2×10⁶ cpm/2 μg MAb/tube, run in triplicate. Non-specific binding was measured by including replicate unlabeled MAb.

[6] = target: T2, CD20 (human B lymphocyte-restricted …); experiment: flow cytometry dissociation of PE-labeled MAb from Raji cells at 37 C without competing veltuzumab-Fab'-NEM
Experimental: The off-rate was determined by non-linear regression (one phase exponential decay) and P-values were generated by F-test using GraphPad Prism software.
as §1

[7] = target: T2, CD20 (human B lymphocyte-restricted …); experiment: flow cytometry dissociation of PE-labeled MAb from Daudi, Ramos and Raji cells at 37 C with excess veltuzumab-Fab'-NEM
Experimental: as §1

[8] = target: T2, CD20 (human B lymphocyte-restricted …); experiment: flow cytometry dissociation of PE-labeled MAb from Raji cells at 37 C with excess veltuzumab-Fab'-NEM
Experimental: as §1

B2: veltuzumab (hA20), humanized anti-CD20 IgG-kappa monoclonal antibody (antibody, V domains shown)
VH: QVQLQQSGAEVKKPGSSVKVSCKASGYTFTSYNMHWVKQAPGQGLEWIGAIYPGNGDTSYNQKFKGKATLTADESTNTAYMELSSLRSEDTAFYYCARSTYYGGDWYFDVWGQGTTVTVSS
VL: DIQLTQSPSSLSASVGDRVTMTCRASSSVSYIHWFQQKPGKAPKPWIYATSNLASGVPVRFSGSGSGTDYTFTISSLQPEDIATYYCQQWTSNPPTFGGGTKLEIK
notes: also called v-mab; Vmab
immunoreactivity [3]: > 90%
fold slower off-rate than rituximab or D101N [4]: ~2.5 fold
Kd [5]: 6.23 to 12 nM
half-life (dissociation) [6]: 4.68 h
fold longer dissociation half-life than rituximab [7]: 2.7 fold

B3: D101N, mutant of veltuzumab with aspartic acid changed to asparagine at Kabat position 101 in CDRH3 (antibody, name in Kabat numbering, V domains shown)
VH: B2 VH with D109N
VL: B2 VL
notes: It has the same CDRs as rituximab and FRs identical to veltuzumab, with the same constant regions as veltuzumab (hA20-pdHL2 vector); also called D101N-hA20
fold faster off-rate than rituximab [8]: 2 fold
fold faster off-rate than veltuzumab [8]: 6 fold
half-life (dissociation) [6]: 0.7 h

B5: cA20, chimeric anti-CD20 antibody (antibody, V domains shown)
VH: QVQLQQPGAELVKPGASVKMSCKASGYTFTSYNMHWVKQTPGRGLEWIGAIYPGNGDTSYNQKFKGKATLTADKSSSTAYMQLSSLTSEDSAVYYCARSTYYGGDWYFDVWGQGTTVTVSS
VL: DIQLTQSPAILSASPGEKVTMTCRASSSVSYIHWFQQKPGSSPKPWIYATSNLASGVPVRFSGSGSGTSYSLTISRVEAEDAATYYCQQWTSNPPTFGGGTKLEIK
notes: Chimeric antibody: murine variable regions on human constant regions
fold slower off-rate than rituximab or D101N [4]: ~2.5 fold

Now from value to molecule:

ADCC (% lysis) of Daudi cells with PBMCs, negative control MAb [1]: 9.9 % lysis
Molecule: hMN-14 IgG (labetuzumab), humanized anti-CEACAM5 monoclonal antibody, negative control

half-life (dissociation) [2]: 3.25 h
B1: 1F5, murine anti-CD20 monoclonal antibody (antibody, from another filing, V domains shown)
VH: QVQLRQPGAELVKPGASVKMSCKASGYTFTSYNMHWVKQTPGQGLEWIGAIYPGNGDTSYNQKFKGKATLTADKSSSTAYMQLSSLTSEDSAVYYCARSHYGSNYVDYFDYWGQGTTLTVSS
VL: QIVLSQSPAILSASPGEKVTMTCRASSSLSFMHWYQQKPGSSPKPWIYATSNLASGVPARFSGSGSGTSYSLTISRVEAEDAATYFCHQWSSNPLTFGAGTKLELKR

Kd [5]: 6.7 to 8.63 nM
half-life (dissociation) [6]: 1.57 h
B4: rituximab, chimeric anti-CD20 monoclonal antibody (IDEC-c2B8) (antibody, V domains shown)
VH: B5 VH with D109N
VL: QIVLSQSPAILSASPGEKVTMTCRASSSVSYIHWFQQKPGSSPKPWIYATSNLASGVPVRFSGSGSGTSYSLTISRVEAEDAATYYCQQWTSNPPTFGGGTK
notes: Commercial chimeric antibody with human constant regions; also called Rmab; Rituxan
